T1: Siz2∆CT K65E K66E (Saccharomyces cerevisiae? (budding …, UniProt Q12216 1-420, K65E;K66E))
T1 sequence: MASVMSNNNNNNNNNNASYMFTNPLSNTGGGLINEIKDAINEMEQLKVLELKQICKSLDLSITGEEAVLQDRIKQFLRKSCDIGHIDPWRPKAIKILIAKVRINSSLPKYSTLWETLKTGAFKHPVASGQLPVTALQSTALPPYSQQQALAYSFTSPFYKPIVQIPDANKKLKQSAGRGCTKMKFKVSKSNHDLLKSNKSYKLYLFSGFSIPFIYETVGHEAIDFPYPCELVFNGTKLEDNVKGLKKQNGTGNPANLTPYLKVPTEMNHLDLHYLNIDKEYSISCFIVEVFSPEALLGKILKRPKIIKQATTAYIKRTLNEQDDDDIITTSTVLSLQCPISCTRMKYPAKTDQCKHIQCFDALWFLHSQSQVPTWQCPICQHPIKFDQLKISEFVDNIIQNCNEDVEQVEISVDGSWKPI

B1: 6-FAM-ds20ss32 (mixed)
DNA 1: GAAGCAAAACTAGCTACAGCTTTTTTTTTTTTTTTTTTTTTTTTTTTTTTTT
DNA 2: GCTGTAGCTAGTTTTGCTTC
B2: 6-FAM-ds20 (dsDNA)
DNA 1: GCTGTAGCTAGTTTTGCTTC
DNA 2: GAAGCAAAACTAGCTACAGC

Key:
[1] = target: Siz2 full length;RPA (Rfa1/Rfa2/Rfa3) (Saccharomyces cerevisiae? (budding …, UniProt Q12216;P22336;P26754;P26755 1-726;1-621;1-273;1-122, |)); experiment: EMSA; Siz2 titrated into RPA-DNA; 5 mM MgCl2; FP: 20 mM HEPES pH 7.5, 125 mM NaCl, 0.1% Tween-20, 23°C, 50 nM DNA (RPA/SUMO-RPA on ss32: 1 nM DNA, plus 5 mM MgCl2, 1 mM DTT); EMSA: same buffer with 5 mM MgCl2 (Fig 8 also 1 mM DTT), 23°C, 6% gel in 0.5x TBE; conditions: protein: recombinant;recombinant; tags: His6-Smt3 removed with Ulp1;noncleavable N-terminal His6 on Rfa2; copies: 1;1;1;1; label: 5' 6-FAM on strand 2 (fw20); 20 bp duplex, 3' overhang 32 nt (dT)
Chain of Siz2 full length;RPA (Rfa1/Rfa2/Rfa3) (Saccharomyces cerevisiae? (P22336 whole entry, chain 2 of 3): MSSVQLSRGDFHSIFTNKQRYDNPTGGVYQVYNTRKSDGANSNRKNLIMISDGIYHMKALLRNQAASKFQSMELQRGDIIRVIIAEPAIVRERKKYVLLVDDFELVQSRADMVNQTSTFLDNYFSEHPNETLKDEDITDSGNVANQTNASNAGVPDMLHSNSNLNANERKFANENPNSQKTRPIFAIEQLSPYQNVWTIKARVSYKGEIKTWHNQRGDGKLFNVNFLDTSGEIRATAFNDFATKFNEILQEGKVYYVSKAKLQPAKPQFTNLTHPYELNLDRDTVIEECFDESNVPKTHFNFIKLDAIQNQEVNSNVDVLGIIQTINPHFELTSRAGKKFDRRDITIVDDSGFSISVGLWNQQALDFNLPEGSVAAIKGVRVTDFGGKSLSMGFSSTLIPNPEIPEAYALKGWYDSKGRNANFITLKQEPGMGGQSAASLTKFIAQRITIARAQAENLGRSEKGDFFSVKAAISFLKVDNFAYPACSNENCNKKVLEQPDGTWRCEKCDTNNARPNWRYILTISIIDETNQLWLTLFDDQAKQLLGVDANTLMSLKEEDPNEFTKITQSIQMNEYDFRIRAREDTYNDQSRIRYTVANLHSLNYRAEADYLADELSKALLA
Chain of Siz2 full length;RPA (Rfa1/Rfa2/Rfa3) (Saccharomyces cerevisiae? (P26754 whole entry, chain 3 of 3): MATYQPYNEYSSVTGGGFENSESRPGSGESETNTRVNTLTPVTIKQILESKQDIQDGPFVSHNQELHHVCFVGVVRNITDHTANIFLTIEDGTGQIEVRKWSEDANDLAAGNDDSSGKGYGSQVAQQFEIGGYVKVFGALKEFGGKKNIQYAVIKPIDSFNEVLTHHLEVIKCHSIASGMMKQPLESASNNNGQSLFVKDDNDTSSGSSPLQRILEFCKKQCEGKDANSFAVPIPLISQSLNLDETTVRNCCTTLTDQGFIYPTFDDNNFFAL
Chain of Siz2 full length;RPA (Rfa1/Rfa2/Rfa3) (Saccharomyces cerevisiae? (P26755 whole entry, chain 4 of 3): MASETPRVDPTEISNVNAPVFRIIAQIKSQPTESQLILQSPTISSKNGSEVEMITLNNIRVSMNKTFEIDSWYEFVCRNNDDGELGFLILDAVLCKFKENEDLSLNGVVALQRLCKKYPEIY

Siz2∆CT K65E K66E = target: T1, Siz2∆CT K65E K66E; experiment: fluorescence polarization; FP: 20 mM HEPES pH 7.5, 125 mM NaCl, 0.1% Tween-20, 23°C, 50 nM DNA (RPA/SUMO-RPA on ss32: 1 nM DNA, plus 5 mM MgCl2, 1 mM DTT); EMSA: same buffer with 5 mM MgCl2 (Fig 8 also 1 mM DTT), 23°C, 6% gel in 0.5x TBE; conditions: protein: recombinant; tags: His6-thioredoxin removed with TEV; label: 5' 6-FAM on strand 1; blunt

Row | Binder | binding result [1] | binding result (Siz2∆CT K65E K66E)
1 | B1 | binds | –
2 | B2 | – | no binding

— paper PMC8591536, “DNA asymmetry promotes SUMO modification of the single‐stranded DNA‐binding protein RPA” (The EMBO Journal, 2021)
